Reference: the supplement of paper PMC10567573

B1: TRAF3IP2 (parent)
chain: APWNYHYHCPGSPDHQVPYGHDYP

Variants of: B1
Assay: protein stability index of a GFP-peptide fusion (GPS, HEK-293T) (PSI 1-6); higher = more stable
Details: c terminus: a fixed tail appended
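Note: lentivirally expressed fusions sorted by FACS into six bins by GFP to DsRed ratio, PSI derived from sequencing read proportions per bin multiplied by bin number.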

Q: Which protein stability index does the source give for APWNYHTHCPGSPDHQVPYGHDYP here?
A: 2.85

Q: Which protein stability index does the source give for APWNYHKHCPGSPDHQVPYGHDYP here?
A: 2.91

Q: Which protein stability index does the source give for APWNYHMHCPGSPDHQVPYGHDYP here?
A: 1.5

Q: For APWNYHIHCPGSPDHQVPYGHDYP, which protein stability index is on record?
A: 2.52

Q: With APWNYHHHCPGSPDHQVPYGHDYP as the variant, how does the protein stability index read?
A: 3.42

Q: Which protein stability index does the source give for APWNYHPHCPGSPDHQVPYGHDYP here?
A: 3.29

Q: Which protein stability index does the source give for APWNYHEHCPGSPDHQVPYGHDYP here?
A: 3.6

Q: For APWNYHCHCPGSPDHQVPYGHDYP, which protein stability index is on record?
A: 2.49

Q: Which protein stability index does the source give for APWNYHVHCPGSPDHQVPYGHDYP here?
A: 2.67

Q: For APWNYHFHCPGSPDHQVPYGHDYP, which protein stability index is on record?
A: 2.4

Q: With APWNYHQHCPGSPDHQVPYGHDYP as the variant, how does the protein stability index read?
A: 3.83

Q: Which protein stability index does the source give for APWNYHRHCPGSPDHQVPYGHDYP here?
A: 3.09

Q: Which protein stability index does the source give for APWNYHDHCPGSPDHQVPYGHDYP here?
A: 3.79

Q: Which protein stability index does the source give for APWNYHWHCPGSPDHQVPYGHDYP here?
A: 1.99

Q: With APWNYHAHCPGSPDHQVPYGHDYP as the variant, how does the protein stability index read?
A: 3.15

Q: Which protein stability index does the source give for APWNYHSHCPGSPDHQVPYGHDYP here?
A: 2.82

Q: For APWNYHNHCPGSPDHQVPYGHDYP, which protein stability index is on record?
A: 3.4

Q: Which protein stability index does the source give for APWNYHGHCPGSPDHQVPYGHDYP here?
A: 3.43

Q: Which protein stability index does the source give for APWNYHLHCPGSPDHQVPYGHDYP here?
A: 2.6

Q: Which protein stability index does the source give for APWNYHYRCPGSPDHQVPYGHDYP here?
A: 1.66

Q: With APWNYHYQCPGSPDHQVPYGHDYP as the variant, how does the protein stability index read?
A: 2.82

Q: With APWNYHYNCPGSPDHQVPYGHDYP as the variant, how does the protein stability index read?
A: 2.1

Q: Which protein stability index does the source give for APWNYHYDCPGSPDHQVPYGHDYP here?
A: 2.9

Q: With APWNYHYGCPGSPDHQVPYGHDYP as the variant, how does the protein stability index read?
A: 2.12

Q: With APWNYHYECPGSPDHQVPYGHDYP as the variant, how does the protein stability index read?
A: 2.25

Q: For APWNYHYCCPGSPDHQVPYGHDYP, which protein stability index is on record?
A: 2.42

Q: With APWNYHYFCPGSPDHQVPYGHDYP as the variant, how does the protein stability index read?
A: 2.22

Q: Which protein stability index does the source give for APWNYHYKCPGSPDHQVPYGHDYP here?
A: 1.73

Q: With APWNYHYPCPGSPDHQVPYGHDYP as the variant, how does the protein stability index read?
A: 1.99

Q: For APWNYHYLCPGSPDHQVPYGHDYP, which protein stability index is on record?
A: 2.2

Q: Which protein stability index does the source give for APWNYHYSCPGSPDHQVPYGHDYP here?
A: 2.44

Q: With APWNYHYICPGSPDHQVPYGHDYP as the variant, how does the protein stability index read?
A: 2.08

Q: Which protein stability index does the source give for APWNYHYMCPGSPDHQVPYGHDYP here?
A: 1.69

Q: Which protein stability index does the source give for APWNYHYACPGSPDHQVPYGHDYP here?
A: 2.06

Q: For APWYYHYHCPGSPDHQVPYGHDYP, which protein stability index is on record?
A: 2.54

Q: For APWTYHYHCPGSPDHQVPYGHDYP, which protein stability index is on record?
A: 2.63

Q: Which protein stability index does the source give for APWSYHYHCPGSPDHQVPYGHDYP here?
A: 3.36

Q: For APWAYHYHCPGSPDHQVPYGHDYP, which protein stability index is on record?
A: 1.7

Q: Which protein stability index does the source give for APWGYHYHCPGSPDHQVPYGHDYP here?
A: 2

Q: For APWCYHYHCPGSPDHQVPYGHDYP, which protein stability index is on record?
A: 2.17

Q: Which protein stability index does the source give for APWEYHYHCPGSPDHQVPYGHDYP here?
A: 3.39

Q: With APWWYHYHCPGSPDHQVPYGHDYP as the variant, how does the protein stability index read?
A: 1.51

Q: With APWKYHYHCPGSPDHQVPYGHDYP as the variant, how does the protein stability index read?
A: 2.24

Q: Which protein stability index does the source give for APWDYHYHCPGSPDHQVPYGHDYP here?
A: 3.54

Q: Which protein stability index does the source give for APWPYHYHCPGSPDHQVPYGHDYP here?
A: 2.59

Q: For APWMYHYHCPGSPDHQVPYGHDYP, which protein stability index is on record?
A: 2.78

Q: For APWIYHYHCPGSPDHQVPYGHDYP, which protein stability index is on record?
A: 2.43

Q: For APWLYHYHCPGSPDHQVPYGHDYP, which protein stability index is on record?
A: 2.26

Q: Which protein stability index does the source give for APWVYHYHCPGSPDHQVPYGHDYP here?
A: 2.12

Q: Which protein stability index does the source give for APWQYHYHCPGSPDHQVPYGHDYP here?
A: 3.04

Q: With APWHYHYHCPGSPDHQVPYGHDYP as the variant, how does the protein stability index read?
A: 1.97

Q: With APWFYHYHCPGSPDHQVPYGHDYP as the variant, how does the protein stability index read?
A: 2.63

Q: Which protein stability index does the source give for APVNYHYHCPGSPDHQVPYGHDYP here?
A: 2.52

Q: Which protein stability index does the source give for APTNYHYHCPGSPDHQVPYGHDYP here?
A: 4.03

Q: For APYNYHYHCPGSPDHQVPYGHDYP, which protein stability index is on record?
A: 3.04

Q: For APSNYHYHCPGSPDHQVPYGHDYP, which protein stability index is on record?
A: 3.95

Q: With APWNYWYHCPGSPDHQVPYGHDYP as the variant, how does the protein stability index read?
A: 2.59

Q: Which protein stability index does the source give for APWNYMYHCPGSPDHQVPYGHDYP here?
A: 2.54

Q: Which protein stability index does the source give for APWNYCYHCPGSPDHQVPYGHDYP here?
A: 3.34

Q: For APWNYYYHCPGSPDHQVPYGHDYP, which protein stability index is on record?
A: 2.02

Q: With APWNYSYHCPGSPDHQVPYGHDYP as the variant, how does the protein stability index read?
A: 3.2

Q: With APWNYLYHCPGSPDHQVPYGHDYP as the variant, how does the protein stability index read?
A: 2.39

Q: With APWNYEYHCPGSPDHQVPYGHDYP as the variant, how does the protein stability index read?
A: 4.43

Q: With APWNYVYHCPGSPDHQVPYGHDYP as the variant, how does the protein stability index read?
A: 1.94

Q: For APWNYQYHCPGSPDHQVPYGHDYP, which protein stability index is on record?
A: 2.97

Q: Which protein stability index does the source give for APWNYGYHCPGSPDHQVPYGHDYP here?
A: 2.96

Q: For APWNYTYHCPGSPDHQVPYGHDYP, which protein stability index is on record?
A: 2.94

Q: Which protein stability index does the source give for APWNYRYHCPGSPDHQVPYGHDYP here?
A: 2.9

Q: For APWNYDYHCPGSPDHQVPYGHDYP, which protein stability index is on record?
A: 3.57

Q: For APWNYFYHCPGSPDHQVPYGHDYP, which protein stability index is on record?
A: 2.14

Q: For APWNYIYHCPGSPDHQVPYGHDYP, which protein stability index is on record?
A: 2.42

Q: Which protein stability index does the source give for APWNYAYHCPGSPDHQVPYGHDYP here?
A: 2.73

Q: With APWNYNYHCPGSPDHQVPYGHDYP as the variant, how does the protein stability index read?
A: 3.15

Q: With APWNYKYHCPGSPDHQVPYGHDYP as the variant, how does the protein stability index read?
A: 2.97

Q: Which protein stability index does the source give for APWNYPYHCPGSPDHQVPYGHDYP here?
A: 3.38

Q: With APWNSHYHCPGSPDHQVPYGHDYP as the variant, how does the protein stability index read?
A: 3.47

Q: For APWNIHYHCPGSPDHQVPYGHDYP, which protein stability index is on record?
A: 3.64

Q: Which protein stability index does the source give for APWNEHYHCPGSPDHQVPYGHDYP here?
A: 4.08

Q: For APWNGHYHCPGSPDHQVPYGHDYP, which protein stability index is on record?
A: 3.96

Q: With APWNFHYHCPGSPDHQVPYGHDYP as the variant, how does the protein stability index read?
A: 2.19

Q: Which protein stability index does the source give for APWNTHYHCPGSPDHQVPYGHDYP here?
A: 3.52

Q: Which protein stability index does the source give for APWNHHYHCPGSPDHQVPYGHDYP here?
A: 2.63

Q: Which protein stability index does the source give for APWNMHYHCPGSPDHQVPYGHDYP here?
A: 3

Q: For APWNWHYHCPGSPDHQVPYGHDYP, which protein stability index is on record?
A: 2.91

Q: For APWNKHYHCPGSPDHQVPYGHDYP, which protein stability index is on record?
A: 3.14

Q: For APWNNHYHCPGSPDHQVPYGHDYP, which protein stability index is on record?
A: 3.43

Q: With APWNPHYHCPGSPDHQVPYGHDYP as the variant, how does the protein stability index read?
A: 3.84

Q: With APWNVHYHCPGSPDHQVPYGHDYP as the variant, how does the protein stability index read?
A: 3.21

Q: For APWNRHYHCPGSPDHQVPYGHDYP, which protein stability index is on record?
A: 3.04

Q: Which protein stability index does the source give for APWNDHYHCPGSPDHQVPYGHDYP here?
A: 3.93

Q: With APWNQHYHCPGSPDHQVPYGHDYP as the variant, how does the protein stability index read?
A: 2.94

Q: For APWNCHYHCPGSPDHQVPYGHDYP, which protein stability index is on record?
A: 3.43

Q: Which protein stability index does the source give for APWNAHYHCPGSPDHQVPYGHDYP here?
A: 3.65

Q: Which protein stability index does the source give for APWNLHYHCPGSPDHQVPYGHDYP here?
A: 3.3
